Experimental data published in the Immune Epitope Database (IEDB).

What was measured:
[1] = target: HLA-B*15:01; assay: IEDB peptide-MHC binding, purified MHC/competitive/fluorescence; ≥ and ≤ were set here for values at or beyond the usual limits of such assays
[2] = target: HLA-A*24:02; assay: as above; details: source organism: Zaire ebolavirus
[3] = target: HLA-A*02:03; assay: IEDB peptide-MHC binding, purified MHC/direct/fluorescence; filed as Kd, often an IC50 or EC50 that approximates it; ≥ and ≤ were set here for values at or beyond the usual limits of such assays
[4] = target: HLA-A*69:01; assay: as above
[5] = target: HLA-A*02:12; assay: as above
[6] = target: HLA-A*02:11; assay: as above
[7] = target: HLA-A*32:01; assay: IEDB peptide-MHC binding, purified MHC/competitive/radioactivity; filed as Kd, often an IC50 or EC50 that approximates it; ≥ and ≤ were set here for values at or beyond the usual limits of such assays
[8] = target: HLA-B*58:01; assay: as above
[9] = target: HLA-B*57:01; assay: as above
[10] = target: HLA-B*51:01; assay: as above; details: source organism: Dengue virus 4 Philippines/H241/1956
[11] = target: HLA-A*02:06; assay: as above
[12] = target: HLA-B*35:01; assay: as above
[13] = target: HLA-A*02:01; assay: as above
[14] = target: HLA-B*53:01; assay: as above
[15] = target: HLA-A*02:17; assay: as above
[16] = target: HLA-B*15:17; assay: IEDB peptide-MHC binding, purified MHC/competitive/fluorescence; filed as Kd, often an IC50 or EC50 that approximates it; ≥ and ≤ were set here for values at or beyond the usual limits of such assays
[17] = target: HLA-A*26:01; assay: as above
[18] = target: HLA-B*51:01; assay: as above
[19] = target: HLA-B*39:01; assay: as above
[20] = target: HLA-A*69:01; assay: as above
[21] = target: HLA-B*27:03; assay: as above
[22] = target: HLA-B*46:01; assay: as above
[23] = target: HLA-B*57:01; assay: as above
[24] = target: HLA-B*18:01; assay: as above
[25] = target: HLA-A*68:02; assay: IEDB peptide-MHC binding, purified MHC/direct/fluorescence; filed as Kd, often an IC50 or EC50 that approximates it; ≥ and ≤ were set here for values at or beyond the usual limits of such assays; details: source organism: Araucaria virus
[26] = target: HLA-A*03:01; assay: as above
[27] = target: HLA-A*24:03; assay: as above
[28] = target: HLA-A*02:19; assay: as above
[29] = target: HLA-A*02:03; assay: IEDB peptide-MHC binding, purified MHC/competitive/radioactivity; filed as Kd, often an IC50 or EC50 that approximates it; ≥ and ≤ were set here for values at or beyond the usual limits of such assays; details: source organism: Dengue virus 1 Brazil/97-11/1997
[30] = target: HLA-A*68:02; assay: as above; details: source organism: Dengue virus 1 Brazil/97-11/1997
[31] = target: HLA-B*08:01; assay: as above; details: source organism: Dengue virus 1 Brazil/97-11/1997
[32] = target: HLA-B*15:01; assay: as above; details: source organism: Dengue virus 1 Brazil/97-11/1997
[33] = target: HLA-A*23:01; assay: as above; details: source organism: Dengue virus 1 Brazil/97-11/1997
[34] = target: HLA-A*24:02; assay: as above
[35] = target: HLA-A*01:01; assay: IEDB peptide-MHC binding, purified MHC/direct/fluorescence; filed as Kd, often an IC50 or EC50 that approximates it; ≥ and ≤ were set here for values at or beyond the usual limits of such assays; details: source organism: Reston ebolavirus - Reston
[36] = target: HLA-A*02:01; assay: as above
[37] = target: HLA-A*02:01; assay: IEDB peptide-MHC binding, purified MHC/competitive/fluorescence; ≥ and ≤ were set here for values at or beyond the usual limits of such assays; details: source organism: Vaccinia virus
[38] = target: HLA-B*15:01; assay: IEDB peptide-MHC binding, purified MHC/direct/fluorescence; filed as Kd, often an IC50 or EC50 that approximates it; ≥ and ≤ were set here for values at or beyond the usual limits of such assays; details: source organism: Campylobacter jejuni
[39] = target: HLA-A*11:01; assay: IEDB peptide-MHC binding, purified MHC/competitive/fluorescence; ≥ and ≤ were set here for values at or beyond the usual limits of such assays; details: source organism: Zaire ebolavirus
[40] = target: HLA-B*15:01; assay: IEDB peptide-MHC binding, purified MHC/competitive/fluorescence; filed as Kd, often an IC50 or EC50 that approximates it; ≥ and ≤ were set here for values at or beyond the usual limits of such assays; details: source organism: Zaire ebolavirus
[41] = target: HLA-A*29:02; assay: IEDB peptide-MHC binding, purified MHC/direct/fluorescence; filed as Kd, often an IC50 or EC50 that approximates it; ≥ and ≤ were set here for values at or beyond the usual limits of such assays; details: source organism: Zaire ebolavirus
[42] = source organism: Zaire ebolavirus
[43] = source organism: Mycobacterium tuberculosis str. Haarlem
[44] = source organism: Dengue virus 3 Martinique/1243/1999
[45] = source organism: Dengue virus 4 Philippines/H241/1956
[46] = source organism: Hantavirus HPR/02-73
[47] = source organism: Araucaria virus
[48] = source organism: Dengue virus 4 Dominica/814669/1981
[49] = source organism: Dengue virus 2 Jamaica/1409/1983
[50] = source organism: Dengue virus 3 Singapore/8120/1995
[51] = source organism: Dengue virus 1 Brazil/97-11/1997
[52] = source organism: Dengue virus 1 Singapore/S275/1990
[53] = source organism: dengue virus type 3

AFHKEGAFF
IC50 [1, 42]: 1.88 µM
IC50 [2]: 0.0199 µM

ALFPIIWAL
Kd [3, 43]: 0.003 µM
Kd ([4]; source organism: Mycobacterium tuberculosis): 0.536 µM
Kd [5, 43]: 0.004 µM
Kd [6, 43]: ≤ 0.001 µM

ATGPITTLW
Kd [7, 44]: 0.221 µM
Kd [8, 44]: 0.00489 µM
Kd [9, 44]: 0.0121 µM

FSMGLLCLTL
Kd [10]: ≥ 69.6 µM
Kd [11, 45]: 0.00849 µM
Kd [12, 45]: 3.07 µM
Kd [13, 45]: 8.99 µM
Kd [14, 45]: 0.333 µM
Kd [15, 45]: 0.084 µM

GFAIPIILK
Kd [16, 46]: ≥ 20 µM
Kd [17, 46]: ≥ 20 µM
Kd [18, 46]: ≥ 20 µM
Kd [19, 46]: ≥ 20 µM
Kd [20, 46]: ≥ 20 µM
Kd [21, 46]: ≥ 20 µM
Kd [22, 46]: ≥ 20 µM
Kd [23, 46]: ≥ 20 µM
Kd [24, 46]: ≥ 20 µM
Kd [3, 47]: ≥ 20 µM
Kd [25]: ≥ 20 µM
Kd ([26]; source organism: Juquitiba virus): 6 µM
Kd [27, 47]: ≥ 20 µM
Kd [28, 47]: ≥ 20 µM
Kd [5, 47]: ≥ 20 µM

GSSIGKMFES
Kd [8, 48]: 0.251 µM
Kd [9, 48]: 1.83 µM

GSSIGQMFET
Kd [8, 49]: 1.51 µM
Kd [9, 49]: 1.08 µM

GTSLLFLNDM
Kd [9, 48]: ≥ 22.1 µM

HSSTWHYDDE
Kd [8, 50]: 0.866 µM
Kd [9, 50]: 6.58 µM

KTKLNDWDF
Kd [9, 44]: 0.0507 µM

MKITAEWLW
Kd [14, 49]: 1.09 µM
Kd [8, 49]: 0.00543 µM
Kd [9, 49]: 0.0433 µM

MLMTGTLAV
Kd [29]: 0.00047 µM
Kd [7, 51]: 0.502 µM
Kd [30]: 0.00971 µM
Kd [11, 51]: 0.00969 µM
Kd [13, 52]: 0.0197 µM
Kd [15, 52]: 0.753 µM
Kd [31]: 0.0225 µM

MLMTGTLAVF
Kd [32]: 0.00124 µM
Kd [33]: 0.055 µM
Kd [34, 51]: 0.296 µM
Kd [12, 51]: 0.342 µM
Kd [13, 52]: 0.0751 µM
Kd [15, 52]: 0.0323 µM

MVAKYDLLV
Kd [17, 42]: ≥ 20 µM
Kd [18, 42]: ≥ 20 µM
Kd [19, 42]: ≥ 20 µM
Kd [21, 42]: ≥ 20 µM
Kd [22, 42]: ≥ 20 µM
Kd [23, 42]: ≥ 20 µM
Kd [24, 42]: ≥ 20 µM
Kd [35]: ≥ 20 µM
Kd [26, 42]: ≥ 20 µM
Kd ([36]; source organism: Reston ebolavirus - Reston): 0.0141 µM
Kd [5, 42]: ≥ 20 µM

PMMIQTRAA
IC50 ([1]; source organism: Vaccinia virus): ≥ 298 µM
IC50 [37]: 18.2 µM

PSSVAARGYI
Kd [8, 45]: 0.512 µM
Kd [9, 45]: 16.4 µM

SLNLAKEAV
Kd [38]: ≥ 34 µM
Kd ([4]; source organism: Campylobacter jejuni): 4.34 µM
Kd ([6]; source organism: Campylobacter jejuni subsp. jejuni HB93-13): 0.003 µM

SQKGQHIEG
IC50 [1, 42]: 46.5 µM
IC50 [39]: ≥ 186 µM

TLYAVATTV
Kd [28, 53]: 0.01 µM
Kd [5, 53]: 0.005 µM
Kd [6, 53]: ≤ 0.001 µM
Kd [29]: 0.0128 µM
Kd [15, 52]: 1.62 µM

TSSQQKADW
Kd [8, 49]: 0.186 µM
Kd [9, 49]: 0.0291 µM

VLSDLCNFL
Kd [40]: ≥ 20 µM
Kd [16, 42]: ≥ 20 µM
Kd [17, 42]: ≥ 20 µM
Kd [18, 42]: ≥ 20 µM
Kd [19, 42]: ≥ 20 µM
Kd [20, 42]: ≥ 20 µM
Kd [21, 42]: ≥ 20 µM
Kd [22, 42]: ≥ 20 µM
Kd [23, 42]: ≥ 20 µM
Kd [24, 42]: ≥ 20 µM
Kd [41]: ≥ 20 µM
Kd [26, 42]: ≥ 20 µM
Kd [27, 42]: ≥ 20 µM
Kd ([36]; source organism: Ebola virus - Gabon (1994-1997)): 0.005 µM

VSAGESSIL
IC50 ([1]; source organism: Vaccinia virus Copenhagen): ≥ 87.4 µM

VTMTLWYMW
Kd [34, 45]: 0.0317 µM
Kd [14, 45]: 2.54 µM
Kd [8, 45]: 0.00159 µM
Kd [9, 45]: 0.00752 µM
